B1: RSPH3 (parent)
chain: MTVKPAKAASLARNLAKRRRTYLG
B2: SETD8 (parent)
chain: KKAQGKTQQNRKLTDFYPVRRSSR

Variants of: B1
Experiment: protein stability index of a GFP-peptide fusion (GPS, HEK-293T) (PSI 1-6); higher = more stable
Conditions: c terminus: a fixed tail appended
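Note: lentivirally expressed fusions sorted by FACS into six bins by GFP to DsRed ratio, PSI derived from sequencing read proportions per bin multiplied by bin number.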

Protein stability index, by site and new letter:
L11: I 2.61 | N 3.99 | A 4 | C 2.54 | H 3.66 | P 3.68 | D 3.46 | T 3.36 | M 3.16 | W 1.83 | V 3.3 | Q 3.79 | R 2.18
R20: E 2.81 | H 2.59 | M 2.72 | K 3.12 | L 1.81 | C 1.91 | Y 1.51 | A 2.41 | W 2.2
G24: P 3.63 | F 1.97 | Y 2.42 | A 3.33 | D 2.04 | V 2.17 | H 2.7 | C 2.64 | Q 2.94 | E 3.54 | T 3.42 | R 3.46 | W 1.63
R18: F 2.71 | H 2.91 | W 2.55 | G 3.22 | Y 2.27 | T 2.73 | N 2.31 | C 2.62 | L 2.55 | K 2.55
N14: A 1.87 | R 2.13 | F 1.96 | Q 3.41 | D 3.08 | V 2.53 | I 1.22 | S 2.62 | Y 2.75 | T 3.29 | C 2.14 | P 2.8 | W 2.67 | E 2.88
P5: Y 2.14 | V 2.69 | M 2.92 | D 3.8 | S 2.56 | A 2.93 | C 2.05 | R 2.48 | I 1.73 | W 2.48 | F 1.52
Y22: Q 3.93 | C 3.63 | S 3.23 | T 3.88 | V 3.99 | I 3.37 | G 4.24 | M 2.9 | E 3.12 | F 3.25 | N 3.46 | W 3.06 | H 3.84
A16: H 3.91 | T 2.69 | G 3.15 | F 2.48 | R 3.35 | Y 2.53 | C 2.72 | M 2.57 | I 2.28 | S 3.36
R13: W 1.8 | A 3.26 | T 2.66 | C 3.12 | V 2.56 | M 2.39 | D 2.85 | S 2.8 | K 3.08 | N 3.63
R19: K 2.86 | I 1.77 | A 1.79 | T 2.52 | E 3.49 | V 1.45 | W 1.64 | D 2.88 | Y 2.42 | L 2.05 | S 2.51
T21: D 3.59 | A 3.09 | N 2.98 | L 2.98 | K 3.9 | V 2.83 | Q 3.21 | F 1.93 | H 2.79 | C 2.73 | W 1.77 | S 3.26
T2: F 1.95 | S 2.96 | A 2.69 | V 2.5 | I 2.45 | K 2.81 | Q 2.61 | E 2.98 | M 2.34 | G 3.28 | L 2.17 | W 1.58 | P 3.41
A6: T 2.99 | Y 2.93 | I 2.43 | D 1.79 | E 3.24 | S 3 | R 2.19 | Q 3.58 | N 2.88 | M 2.27 | F 3.04 | K 2.67
K4: F 2.34 | A 2 | M 3.46 | C 2.8 | P 2.94 | N 2.69 | D 2.97 | S 3.36 | H 3.7 | T 3.38 | I 1.87 | Q 3.95
L15: A 4.08 | C 3.14 | Y 2.84 | R 3.92 | V 4.02 | M 2.58 | K 3.48 | I 3.14 | P 3.75 | G 4.08 | D 4.11 | F 2.08 | Q 3.34 | S 3.75
A12: S 2.39 | V 2.16 | R 3.67 | C 2.87 | K 3.22 | M 2.22 | W 2.09 | P 2.87 | E 2.83 | L 1.34
K17: M 2.8 | N 2.57 | A 3.39 | Q 2.49 | F 2.1 | R 3.04 | C 1.99 | W 1.92 | Y 2.38 | D 3.25 | V 2.64
M1: F 2.35 | Y 2.55 | S 3.02 | I 2.15 | C 2.71 | L 3.36 | G 3.28 | H 3.45 | A 3.34 | E 2.46 | K 2.33
V3: Y 2.68 | M 2.31 | F 3.79 | I 3.59 | C 3.73 | N 3.22 | R 2.98 | S 2.62 | T 3.5 | A 2.85
K7: V 2.44 | I 2.46 | T 3.06 | A 3.46 | G 3.13 | C 2.56 | P 3.18 | N 3.21 | S 2.66 | M 2.93 | F 2.2 | Q 3.88 | W 3.15 | L 3.62 | E 3.59
L23: Q 4.34 | E 4.43 | R 3.61 | A 3.98 | T 4.09 | W 3.34 | G 4.13 | S 4.5 | V 2.96
S10: N 2.99 | I 2.55 | F 2.35 | D 2.96 | L 3.35 | C 2.01 | E 2.74 | K 2.1 | H 3.28 | T 3.41 | G 2.88 | V 3.34
A8: P 2.04 | D 3.43 | Q 2.5 | Y 2.04 | N 2.58 | L 2.65 | W 2.46
A9: K 2.64 | T 3.11 | C 2.73 | H 3.37 | G 2.71 | Q 2.77 | F 2.62 | V 3.28 | P 3.03

Variants of: B2
Experiment: as above
Conditions: c terminus: a fixed tail appended

Protein stability index: each site, then its substitutions
G5: I 1.68 | D 2.89 | E 2.89 | H 1.83 | A 1.87
K2: G 3.04 | L 1.57 | D 2.65 | N 2.56 | F 1.97 | S 2.12 | M 2.54 | Y 2.43 | P 2.13 | Q 1.83 | H 3.35 | I 3.63 | T 3.1 | W 3.07 | R 2.03
Q4: L 3.69 | G 2.22 | E 1.68 | I 3.18 | Y 2.18 | R 1.99 | C 1.64 | T 1.87 | D 4.69 | S 1.13 | K 3.35 | H 2.73 | V 3.42
K1: H 1.54 | C 1.22 | N 2.13 | I 4.17 | R 2.24 | F 2.11 | V 2.73 | W 2.09 | M 2.54 | E 1.97 | T 2.62 | G 1.81 | L 4.04 | S 2.88 | Q 1.99
A3: K 2.72 | D 3.79 | R 3.17 | I 2.84 | V 3.41 | W 2.33 | Q 2.4 | T 2.43 | G 3.27 | S 3.47 | E 3.01 | F 2.93 | Y 2.73 | N 3.12 | L 3.96

Reference: the supplement of paper PMC10567573
